# Measurements from patent US20260092124A1.
# Tests used:
# human CD40 (human) [1] = target: human CD40 (human) (UniProt P25942); assay: cell binding (GpL luciferase, HT1080-CD40); single representative experiment
# human CD40 (human) [2] = target: human CD40 (human) (UniProt P25942); assay: cell binding (GpL luciferase, HT1080-CD40); mean, n=5
# Chain of human CD40 (human) (P25942 21-277): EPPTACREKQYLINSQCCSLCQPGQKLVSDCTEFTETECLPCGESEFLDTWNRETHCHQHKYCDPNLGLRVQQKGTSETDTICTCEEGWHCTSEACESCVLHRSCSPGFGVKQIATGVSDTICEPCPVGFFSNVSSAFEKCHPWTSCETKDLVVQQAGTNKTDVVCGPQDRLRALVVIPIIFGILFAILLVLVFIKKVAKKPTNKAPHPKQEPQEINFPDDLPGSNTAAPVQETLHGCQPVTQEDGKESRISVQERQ
Kd (human CD40 (human) [1]) [µg/mL],Kd (human CD40 (human) [2]) [µg/mL],Substance
0.08,0.086,G28.5 IgG1 variant
0.35,0.334,"CP-870,893 IgG1 variant"
0.26,0.274,APX005M IgG1 variant
